Reference: patent publication US20250136692A1 (GEORGIAMUNE, published 2025)

Target: PD-1 on human CD4+ T cells (human, UniProt Q15116 25-288)
Test: cell-based or functional assay

Sequence of PD-1 on human CD4+ T cells (Q15116 25-288 limits assumed): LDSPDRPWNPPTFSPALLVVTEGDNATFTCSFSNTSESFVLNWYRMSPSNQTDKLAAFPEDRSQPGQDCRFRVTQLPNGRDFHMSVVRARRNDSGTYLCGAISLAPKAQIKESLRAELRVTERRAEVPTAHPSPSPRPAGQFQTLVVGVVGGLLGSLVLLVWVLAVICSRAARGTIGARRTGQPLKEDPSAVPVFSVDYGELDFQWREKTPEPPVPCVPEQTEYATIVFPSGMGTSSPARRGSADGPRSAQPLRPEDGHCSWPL

| Binder | IFN-γ levels in the supernatants of human CD4 T cells (ELISA), 4G9-2 at 25 µg/mL for 72 hours [fold] | ITK/SHP2 ratio (normalized to levels of PD-1), Protein A immunoprecipitation and Western blot [fold] |
| --- | --- | --- |
| 4G9-2 (antibody, human IgG1, kappa, V domains shown) VH: QVQLVQSGAEVKKPGASVKVSCKASGYTFTTYGINWVRQATGQGLEWMGWINTYSGVPGYAQKFQGRVTMTLNTSISTAYMELSSLRSEDTAVYYCARGSGGFAYWGQGTLVTVSS VL: not shown | 3 |  |
| 4G9-12 (antibody, V domains shown) VH: QVQLVQSGAEVKKPGASVKVSCKASGYTFTTYGINWVRQATGQGLEWMGWINTYSGVPGYAQKFQGRVTMTLDTSISTAYMELSSLRSEDTAVYYCARGSGGFAYWGQGTLVTVSS VL: not shown |  | 3 |
